This passage reports Kd, koff and kon results from patent publication US20160297884A1 (Pfizer, published 2016).

Assay [1] concerns the target T1, Cynomolgus monkey BCMA (cynomolgus monkey).
T1 construct: Soluble analyte in SPR; also called cyBCMA; Cyno BCMA
In words: SPR, IgG immobilised, cyno BCMA analyte. The procedure, abridged: (§1)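 IgGs were amine-coupled (EDC/NHS, 20 μg/mL in acetate pH 4.5) and BCMA, human or cynomolgus, was injected by kinetic titration at 0.08, 0.4, 2, 10 and 50 nM, 2 min each, in HBS-T+ pH 7.4 with 1 mg/mL BSA at 37° C or 25° C. Dissociation was followed for 2 hours.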

Assay [2] deals with T2, Human BCMA (human, UniProt Q02223 1-54, limits assumed).
T2 construct: also called huBCMA; B-cell maturation antigen
T2 sequence (looked up): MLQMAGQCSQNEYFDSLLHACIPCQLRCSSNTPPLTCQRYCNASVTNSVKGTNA
The assay is described as follows: SPR, IgG immobilised, human BCMA analyte. The gist of the method:
as §1

B1: COMBO_Rd4_6nM_C08 (antibody, V domains shown)
VH: EVQLLESGGGLVQPGGSLRLSCAASGFTFSSYPMSWVRQAPGKGLEWVSAIGGSGTWTYYADSVKGRFTISRDNSKNTLYLQMNSLRAEDTAVYYCARYWPMDSWGQGTLVTVSS
VL: EIVLTQSPGTLSLSPGERATLSCRASQSVSSSYLAWYQQKPGQAPRLLMYDASIRATGIPDRFSGSGSGTDFTLTISRLEPEDFAVYYCQQYQKWPLTFGQGTKVEIK
notes: IgG
A word on the Kd: it is the constant that tells how readily two partners part at equilibrium. As usually defined, the koff is a measure of how fast the partners let go of each other. The kon is the second-order rate constant of association. Take B1: in assay [1], the Kd was found to be 0.14 nM, the koff is 0.000428 s⁻¹ and the on-rate (kon) was 3.06e+06 M⁻¹ s⁻¹. Besides, in assay [2], the affinity, expressed as Kd, was 0.019 nM; the koff was 0.000169 s⁻¹; the kon stood at 8.99e+06 M⁻¹ s⁻¹.

B2: COMBO_Rd4_6nM_C09 (antibody, V domains shown)
VH: EVQLLESGGGLVQPGGSLRLSCAASGFTFSSYPMSWVRQAPGKGLEWVSAIFASGGSTYYADSVKGRFTISRDNSKNTLYLQMNSLRAEDTAVYYCARYWPMDSWGQGTLVTVSS
VL: EIVLTQSPGTLSLSPGERATLSCRASQSVSAQYLAWYQQKPGQAPRLLMYDASIRATGIPDRFSGSGSGTDFTLTISRLEPEDFAVYYCQQYQAWPLTFGQGTKVEIK
notes: IgG
In assay [1], B2 had a Kd of 0.134 nM, a koff of 0.000318 s⁻¹ and a kon of 2.37e+06 M⁻¹ s⁻¹. In assay [2], this molecule returned a Kd of 0.016 nM, an off-rate (koff) of 0.000143 s⁻¹ and a kon of 8.85e+06 M⁻¹ s⁻¹.

B3: COMBO_Rd4_6nM_C11 (antibody, V domains shown)
VH: EVQLLESGGGLVQPGGSLRLSCAASGFTFSSYPMSWVRQAPGKGLEWVSAIGGSGGSLGYADSVKGRFTISRDNSKNTLYLQMNSLRAEDTAVYYCARYWPMDSWGQGTLVTVSS
VL: EIVLTQSPGTLSLSPGERATLSCRASQSVSPLYLAWYQQKPGQAPRLLMYDASIRATGIPDRFSGSGSGTDFTLTISRLEPEDFAVYYCQQYKAWPLTFGQGTKVEIK
notes: IgG
B3: in assay [1], binding was put at a Kd of 0.156 nM, the koff stood at 0.000412 s⁻¹ and the kon turned out to be 2.64e+06 M⁻¹ s⁻¹. In assay [2], this molecule had an equilibrium dissociation constant (Kd) of 0.018 nM, a koff of 0.000124 s⁻¹ and a kon of 6.74e+06 M⁻¹ s⁻¹.

B4: COMBO_Rd4_6nM_C22 (antibody, V domains shown)
VH: EVQLLESGGGLVQPGGSLRLSCAASGFTFSSYAMNWVRQAPGKGLEWVSACLDSGGSTYYADSVKGRFTISRDNSKNTLYLQMNSLRAEDTAVYYCARYWPMDSWGQGTLVTVSS
VL: EIVLTQSPGTLSLSPGERATLSCRASQSVSSSYLAWYQQKPGQAPRLLMYDASIRATGIPDRFSGSGSGTDFTLTISRLEPEDFAVYYCQQYQGWPLTFGQGTKVEIK
notes: IgG
In assay [1], B4 gave a Kd of 0.972 nM, a koff of 0.00165 s⁻¹ and a kon of 1.7e+06 M⁻¹ s⁻¹. Besides, in assay [2], the Kd amounted to 0.256 nM, the koff was 0.000775 s⁻¹ and the kon was determined as 3.03e+06 M⁻¹ s⁻¹.

B5: COMBO_Rd4_6nM_C10 (antibody, V domains shown)
VH: EVQLLESGGGLVQPGGSLRLSCAASGFTFSSYPMSWVRQAPGKGLEWVSAIGGSGGSIHYADSVKGRFTISRDNSKNTLYLQMNSLRAEDTAVYYCARYWPMDSWGQGTLVTVSS
VL: EIVLTQSPGTLSLSPGERATLSCRASQSVSSSYWGWYQQKPGQAPRLLMYDASIRATGIPDRFSGSGSGTDFTLTISRLEPEDFAVYYCQQYQCWPLTFGQGTKVEIK
notes: IgG
As to B5, in assay [1], the affinity, expressed as Kd, was 0.105 nM; the koff amounted to 0.00016 s⁻¹; the kon was 1.52e+06 M⁻¹ s⁻¹. In assay [2], this molecule showed a dissociation constant Kd of 0.018 nM, a koff of 9.72e-05 s⁻¹ and an association rate constant (kon) of 5.47e+06 M⁻¹ s⁻¹.

B6: COMBO_Rd4_6nM_C21 (antibody, V domains shown)
VH: EVQLLESGGGLVQPGGSLRLSCAASGFTFSSYPMSWVRQAPGKGLEWVSAIGGSGGSLPYADSVKGRFTISRDNSKNTLYLQMNSLRAEDTAVYYCARYWPMDSWGQGTLVTVSS
VL: EIVLTQSPGTLSLSPGERATLSCRASQSVSAAYLAWYQQKPGQAPRLLMYDASIRATGIPDRFSGSGSGTDFTLTISRLEPEDFAVYYCQQYMCWPLTFGQGTKVEIK
notes: IgG
In assay [1], B6 had a Kd of 0.078 nM, a koff of 0.000248 s⁻¹ and a kon of 3.17e+06 M⁻¹ s⁻¹. Also, in assay [2], the Kd was 0.006 nM, the koff was 7.34e-05 s⁻¹ and the kon was 1.17e+07 M⁻¹ s⁻¹.
